Data as given in patent publication WO2006003179A2 (dated 2006).
Blank lines part the entries; values can stand above or below the molecule they belong to.

What was measured:
[1] = target: recombinant soluble KIR2DL3 (entire extracellular domain, produced in E. coli) (human) (UniProt P43628); assay: Biacore competition, immobilized KIR2DL3; first Ab DF200, competitor (second Ab) Pan2D; design: concentration or dose not given beside the values
[2] = target: recombinant soluble KIR2DL3 (entire extracellular domain, produced in E. coli) (human) (UniProt P43628); assay: Biacore competition, immobilized KIR2DL3; first Ab DF200, competitor (second Ab) 1-6F1; design: concentration or dose not given beside the values
[3] = target: recombinant soluble KIR2DL3 (entire extracellular domain, produced in E. coli) (human) (UniProt P43628); assay: Biacore, immobilized KIR2DL3; second Ab DF200 alone (field of first Ab 1-7F9)
[4] = target: recombinant soluble KIR2DL3 (entire extracellular domain, produced in E. coli) (human) (UniProt P43628); assay: Biacore competition, immobilized KIR2DL3; first Ab DF200, competitor (second Ab) 1-4F1; design: concentration or dose not given beside the values
[5] = target: recombinant soluble KIR2DL3 (entire extracellular domain, produced in E. coli) (human) (UniProt P43628); assay: Biacore competition, immobilized KIR2DL3; first Ab DF200, competitor (second Ab) GL183; design: concentration or dose not given beside the values
[6] = target: recombinant soluble KIR2DL3 (entire extracellular domain, produced in E. coli) (human) (UniProt P43628); assay: Biacore competition, immobilized KIR2DL3; first Ab DF200, competitor (second Ab) 1-6F5; design: concentration or dose not given beside the values
[7] = target: recombinant soluble KIR2DL3 (entire extracellular domain, produced in E. coli) (human) (UniProt P43628); assay: Biacore, immobilized KIR2DL3; second Ab DF200 alone (field of first Ab 1-6F1)
[8] = target: recombinant soluble KIR2DL3 (entire extracellular domain, produced in E. coli) (human) (UniProt P43628); assay: Biacore, immobilized KIR2DL3; second Ab DF200 alone (field of first Ab 1-6F5)
[9] = target: recombinant soluble KIR2DL3 (entire extracellular domain, produced in E. coli) (human) (UniProt P43628); assay: Biacore, immobilized KIR2DL3; second Ab DF200 injected after first Ab 1-6F1
[10] = target: recombinant soluble KIR2DL3 (entire extracellular domain, produced in E. coli) (human) (UniProt P43628); assay: Biacore, immobilized KIR2DL3; second Ab DF200 injected after first Ab 1-6F5
[11] = target: recombinant soluble KIR2DL1 (entire extracellular domain, produced in E. coli) (human) (UniProt P43626); assay: Biacore SPR, KIR2DL1 immobilized on CM5, antibody as analyte (bivalent binding), Example 3
[12] = target: recombinant soluble KIR2DL3 (entire extracellular domain, produced in E. coli) (human) (UniProt P43628); assay: Biacore SPR, KIR2DL3 immobilized on CM5, antibody as analyte (bivalent binding), Example 3
[13] = target: recombinant soluble KIR2DL3 (entire extracellular domain, produced in E. coli) (human) (UniProt P43628); assay: Biacore, immobilized KIR2DL3; second Ab DF200 injected after first Ab 1-7F9
[14] = target: recombinant soluble KIR2DL3 (entire extracellular domain, produced in E. coli) (human) (UniProt P43628); assay: Biacore competition, immobilized KIR2DL3; first Ab DF200, competitor (second Ab) 1-7F9; design: concentration or dose not given beside the values
[15] = target: recombinant soluble KIR2DL3 (entire extracellular domain, produced in E. coli) (human) (UniProt P43628); assay: Biacore, immobilized KIR2DL3; second Ab DF200 injected after first Ab 1-4F1
[16] = target: recombinant soluble KIR2DL3 (entire extracellular domain, produced in E. coli) (human) (UniProt P43628); assay: Biacore, immobilized KIR2DL3; second Ab DF200 alone (field of first Ab 1-4F1)
[17] = target: recombinant soluble KIR2DL3 (entire extracellular domain, produced in E. coli) (human) (UniProt P43628); assay: Biacore competition, immobilized KIR2DL3; first Ab gl183, competitor (second Ab) Pan2D; design: concentration or dose not given beside the values
[18] = target: recombinant soluble KIR2DL3 (entire extracellular domain, produced in E. coli) (human) (UniProt P43628); assay: Biacore competition, immobilized KIR2DL3; first Ab gl183, competitor (second Ab) 1-4F1; design: concentration or dose not given beside the values
[19] = target: recombinant soluble KIR2DL3 (entire extracellular domain, produced in E. coli) (human) (UniProt P43628); assay: Biacore, immobilized KIR2DL3; second Ab GL183 alone (field of first Ab 1-7F9)
[20] = target: recombinant soluble KIR2DL3 (entire extracellular domain, produced in E. coli) (human) (UniProt P43628); assay: Biacore, immobilized KIR2DL3; second Ab GL183 injected after first Ab 1-6F1
[21] = target: recombinant soluble KIR2DL3 (entire extracellular domain, produced in E. coli) (human) (UniProt P43628); assay: Biacore competition, immobilized KIR2DL3; first Ab gl183, competitor (second Ab) DF200; design: concentration or dose not given beside the values
[22] = target: recombinant soluble KIR2DL3 (entire extracellular domain, produced in E. coli) (human) (UniProt P43628); assay: Biacore, immobilized KIR2DL3; second Ab GL183 injected after first Ab 1-7F9
[23] = target: recombinant soluble KIR2DL3 (entire extracellular domain, produced in E. coli) (human) (UniProt P43628); assay: Biacore, immobilized KIR2DL3; second Ab GL183 alone (field of first Ab 1-6F1)
[24] = target: recombinant soluble KIR2DL3 (entire extracellular domain, produced in E. coli) (human) (UniProt P43628); assay: Biacore, immobilized KIR2DL3; second Ab GL183 alone (field of first Ab 1-4F1)
[25] = target: recombinant soluble KIR2DL3 (entire extracellular domain, produced in E. coli) (human) (UniProt P43628); assay: Biacore competition, immobilized KIR2DL3; first Ab gl183, competitor (second Ab) 1-7F9; design: concentration or dose not given beside the values
[26] = target: recombinant soluble KIR2DL3 (entire extracellular domain, produced in E. coli) (human) (UniProt P43628); assay: Biacore, immobilized KIR2DL3; second Ab GL183 injected after first Ab 1-4F1
[27] = target: recombinant soluble KIR2DL3 (entire extracellular domain, produced in E. coli) (human) (UniProt P43628); assay: Biacore competition, immobilized KIR2DL3; first Ab gl183, competitor (second Ab) 1-6F1; design: concentration or dose not given beside the values
[28] = target: T1, KIR2DS3 on transfected cells (human, UniProt Q14952 22-304); assay: flow cytometry on cells transfected with KIR2DS3 (Figure 16)
T1 construct: whole, on cells
T1 sequence (Q14952 22-304): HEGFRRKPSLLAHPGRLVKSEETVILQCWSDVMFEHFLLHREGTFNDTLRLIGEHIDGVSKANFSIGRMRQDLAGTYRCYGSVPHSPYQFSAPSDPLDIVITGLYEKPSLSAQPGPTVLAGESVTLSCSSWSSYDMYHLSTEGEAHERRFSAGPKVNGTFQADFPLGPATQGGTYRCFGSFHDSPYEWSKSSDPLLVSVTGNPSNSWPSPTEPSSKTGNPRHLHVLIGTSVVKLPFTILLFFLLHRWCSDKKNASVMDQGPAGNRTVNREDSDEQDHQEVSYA

[29] = target: recombinant soluble KIR2DL3 (entire extracellular domain, produced in E. coli) (human) (UniProt P43628); assay: Biacore, immobilized KIR2DL3; second Ab Pan2D alone (field of first Ab 1-6F5)
[30] = target: recombinant soluble KIR2DL3 (entire extracellular domain, produced in E. coli) (human) (UniProt P43628); assay: Biacore, immobilized KIR2DL3; second Ab Pan2D alone (field of first Ab 1-6F1)
[31] = target: recombinant soluble KIR2DL3 (entire extracellular domain, produced in E. coli) (human) (UniProt P43628); assay: Biacore, immobilized KIR2DL3; second Ab Pan2D injected after first Ab 1-6F1
[32] = target: recombinant soluble KIR2DL3 (entire extracellular domain, produced in E. coli) (human) (UniProt P43628); assay: Biacore, immobilized KIR2DL3; second Ab Pan2D alone (field of first Ab 1-4F1)
[33] = target: recombinant soluble KIR2DL3 (entire extracellular domain, produced in E. coli) (human) (UniProt P43628); assay: Biacore, immobilized KIR2DL3; second Ab Pan2D injected after first Ab 1-7F9
[34] = target: recombinant soluble KIR2DL3 (entire extracellular domain, produced in E. coli) (human) (UniProt P43628); assay: Biacore, immobilized KIR2DL3; second Ab Pan2D injected after first Ab 1-4F1
[35] = target: recombinant soluble KIR2DL3 (entire extracellular domain, produced in E. coli) (human) (UniProt P43628); assay: Biacore, immobilized KIR2DL3; second Ab Pan2D alone (field of first Ab 1-7F9)

% inhibition of second antibody binding [1]: 75%
% inhibition of second antibody binding [2]: 16%
RU of second antibody alone (RU1) [3]: 770 RU
% inhibition of second antibody binding [4]: 75%
% inhibition of second antibody binding [5]: 20%
% inhibition of second antibody binding [6]: 4%
RU of second antibody alone (RU1) [7]: 790 RU
RU of second antibody alone (RU1) [8]: 800 RU
RU of second antibody after first antibody (RU2) [9]: 760 RU
RU of second antibody after first antibody (RU2) [10]: 760 RU
Kd [11]: 11 nM
Kd [12]: 2 nM
RU of second antibody after first antibody (RU2) [13]: 450 RU
% inhibition of second antibody binding [14]: 62%
RU of second antibody after first antibody (RU2) [15]: 210 RU
RU of second antibody alone (RU1) [16]: 1140 RU
Molecule: murine monoclonal antibody DF200

% inhibition of second antibody binding [17]: 40%
% inhibition of second antibody binding [18]: 75%
RU of second antibody alone (RU1) [19]: 800 RU
RU of second antibody after first antibody (RU2) [20]: 570 RU
% inhibition of second antibody binding [21]: 8%
RU of second antibody after first antibody (RU2) [22]: 200 RU
RU of second antibody alone (RU1) [23]: 620 RU
RU of second antibody alone (RU1) [24]: 1240 RU
% inhibition of second antibody binding [25]: 76%
RU of second antibody after first antibody (RU2) [26]: 330 RU
% inhibition of second antibody binding [27]: 18%
Molecule: GL183 (antibody)

binding result [28]: no binding (tested: 1 μg/ml)
B1: human monoclonal antibody 1-7F9 (antibody, human IgG4, kappa, V domains shown)
VH: QVQLVQSGAEVKKPGSSVKVSCKASGGTFSFYAISWVRQAPGQGLEWMGGFIPIFGAANYAQKFQGRVTITADESTSTAYMELSSLRSDDTAVYYCARIPSGSYYYDYDMDVWGQGTTVTVSS
VL: EIVLTQSPVTLSLSPGERATLSCRASQSVSSYLAWYQQKPGQAPRLLIYDASNRATGIPARFSGSGSGTDFTLTISSLEPEDFAVYYCQQRSNWMYTFGQGTKLEIKR
notes: also called HuKIR 1-7F9; mAb 1-7F9

RU of second antibody alone (RU1) [29]: 990 RU
RU of second antibody alone (RU1) [30]: 990 RU
RU of second antibody after first antibody (RU2) [31]: 1090 RU
RU of second antibody alone (RU1) [32]: 2400 RU
RU of second antibody after first antibody (RU2) [33]: 830 RU
binding result [28]: no binding (tested: 1 μg/ml)
RU of second antibody after first antibody (RU2) [34]: 890 RU
RU of second antibody alone (RU1) [35]: 870 RU
B2: murine monoclonal antibody NKVSF1 (Pan2D) (antibody, V domains shown)
VH: EVQLQQSGTVLARPGASVKMSCKASGYTFTSYWMHWMKQRPGQGLEWIGTIYPGNSDTNYNQKFKGKAKLTAVTSTNTAYMELSSLTNEDSAVYYCSRPTTATRSSAMDYWGQGTSVTVSS
VL: QIVLTQSPASMSASLGERVTMTCTASSSVSSSYLYWYQQKPGSSPKLWIYSTSNLASGVPARFSGSGSGTSYSLTISSMEAEDAATYYCHQYHRSPPTFGGGTKLEIKR
notes: Mouse mAb, bought from Serotec, cat
